Measured values from patent US20240384250A1, “FIBROBLAST GROWTH FACTOR 23 MODULATING COMPOUNDS” (THE UAB RESEARCH FOUNDATION, priority 2021, published 2024).

Target: recombinant FGF23 protein (species not stated for the assay)
Test: sKL detection assay (sandwich): FGF23 coated, sKL sample, then Fc-FGFR1c, anti-Fc-HRP, A450

fold binding activity against Com.sKL: 7 fold
Substance: FLAG-tagged soluble klotho (sKL) (receptor)
